From US20230331821A1
Like-named read-outs stand apart in the source and are kept apart here.

B1: S306 (antibody)
heavy: QVQLVQSGAEVKKPGASVKVSCKASTYTFTSFGISWVRQAPGQGLEWMGWITTYSGDTNYAQKFQGRVTMTTDTSTNTAYMELRSLRSDDTAVYYCASDYFDSSGYYHSFDYWGQGTLVTVSS
light: EIVLTQSPDTLSLSPGERATLSCRASQSVSSYLAWYQQRPGQAPRLLIYDASKRATGIPARFSGSGSGTDFTLTISSLEPEDFAVYYCQQRSNWPPGCSFGQGTKVEIK
B2: SARS-CoV-2 S306 mAb (B cell supernatant) (antibody, V domains shown)
VH: QVQLVQSGAEVKKPGASVKVSCKASTYTFTSFGISWVRQAPGQGLEWMGWITTYSGDTNYAQKFQGRVTMTTDTSTNTAYMELRSLRSDDTAVYYCASDYFDSSGYYHSFDYWGQGTLVTVSS
VL: EIVLTQSPDTLSLSPGERATLSCRASQSVSSYLAWYQQRPGQAPRLLIYDASKRATGIPARFSGSGSGTDFTLTISSLEPEDFAVYYCQQRSNWPPGCSFGQGTKVEIK

How the values were obtained:
Settings in all cases: remark: other sources report otherwise
[1] = target: T1, SARS-CoV-2 Spike (S) protein, strain BetaCoV/Wuhan-Hu-1/2019, full length (SARS-CoV-2 Wuhan-Hu-1), P0DTC2; experiment: flow cytometry, ExpiCHO cells expressing SARS-CoV-2 S; % positive cells
[2] = target: T1, SARS-CoV-2 Spike (S) protein, strain …; experiment: flow cytometry, ExpiCHO cells transfected with SARS-CoV-2 S; MFI (AF647)
[3] = target: T1, SARS-CoV-2 Spike (S) protein, strain …
[4] = target: T1, SARS-CoV-2 Spike (S) protein, strain …; remark: listed apart in the source

Binder | EC50 (read off the curve) [1] | EC50 (read off the curve) [2] | EC50 (read off the curve) [3] | POS [4]
B1 | 0.001 µg/mL | 0.2 µg/mL | 0.2 µg/mL | 
B2 |  |  |  | 57.6
